# Measured values as given in US10590193 (dated 2020).
# Residue numbers refer to the chain shown, from its start. Numbers in names are those of the source.
# T1: human VEGF165 (human, UniProt P15692)
# T1 chain: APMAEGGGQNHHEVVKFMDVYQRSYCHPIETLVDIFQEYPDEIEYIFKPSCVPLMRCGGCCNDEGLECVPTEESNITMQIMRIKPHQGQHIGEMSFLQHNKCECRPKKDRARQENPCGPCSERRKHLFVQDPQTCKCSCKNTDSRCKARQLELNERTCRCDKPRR
# T2: human PlGF (human, UniProt P49763)
# T2 chain: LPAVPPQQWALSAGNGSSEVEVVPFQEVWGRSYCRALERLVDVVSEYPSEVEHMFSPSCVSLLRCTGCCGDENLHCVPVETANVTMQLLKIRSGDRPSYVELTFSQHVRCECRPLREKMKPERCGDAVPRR
# T3: human VEGF110 (human, UniProt P15692)
# T3 chain: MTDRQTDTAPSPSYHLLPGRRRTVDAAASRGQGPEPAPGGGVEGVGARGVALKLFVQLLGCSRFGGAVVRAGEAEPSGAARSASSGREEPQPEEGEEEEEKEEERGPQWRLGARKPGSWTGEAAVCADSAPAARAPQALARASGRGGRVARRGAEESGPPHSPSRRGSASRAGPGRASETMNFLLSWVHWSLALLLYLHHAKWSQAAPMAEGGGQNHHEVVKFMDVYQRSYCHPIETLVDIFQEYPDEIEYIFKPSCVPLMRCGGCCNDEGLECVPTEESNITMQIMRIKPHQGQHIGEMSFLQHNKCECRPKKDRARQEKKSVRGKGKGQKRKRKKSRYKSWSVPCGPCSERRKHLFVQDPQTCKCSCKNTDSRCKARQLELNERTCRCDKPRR
# T4: mouse VEGF164 (mouse, UniProt Q00731)
# T4 chain: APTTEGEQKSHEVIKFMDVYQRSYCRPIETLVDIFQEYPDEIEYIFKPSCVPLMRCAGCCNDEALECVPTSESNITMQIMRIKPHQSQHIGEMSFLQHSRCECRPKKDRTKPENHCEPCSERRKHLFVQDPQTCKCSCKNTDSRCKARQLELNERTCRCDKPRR
# T5: human VEGF121 (human, UniProt P15692)
# T5 chain: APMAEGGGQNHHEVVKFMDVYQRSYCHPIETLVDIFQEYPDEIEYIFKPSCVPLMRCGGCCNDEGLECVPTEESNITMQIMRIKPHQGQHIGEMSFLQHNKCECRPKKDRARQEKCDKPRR
# T6: rat VEGF164 (rat, UniProt P16612)
# T6 chain: T4 chain with S10A, I14V, I75V
# B1: 578 wildtype C-His (798) (antibody, V domains shown)
# VH: QSVEESGGRLVTPGTPLTLTCTASGFSLTDYYYMTWVRLAPGKGLEYIGFIDPDDDPYYATWAKGRFTISRTSTTVNLKMTSPTTEDTATYFCAGGDHNSGWGLDIWGPGTLVTVSL
# VL: DVVMTQTPSSVSAAVGDTVTINCQASEIIHSWLAWYQQKPGQPPKLLIYLASTLASGVPSRFKGSGSGTQFTLTISDLECADAAIYYCQNVYLASTNGANFGGGTEVVVK
# B2: 578min_max V89L (980) (antibody, V domains shown)
# VH: EVQLVESGGGLVQPGGSLRLSCTASGFSLTDYYYMTWVRQAPGKGLEWVGFIDPDDDPYYATWAKGRFTISRDTSKNTLYLQMNSLRAEDTAVYYCAGGDHNSGWGLDIWGQGTLVTVSS
# VL: EIVMTQSPSTLSASVGDRVIITCQASEIIHSWLAWYQQKPGKAPKLLIYLASTLASGVPSRFSGSGSGAEFTLTISSLQPDDFATYYCQNVYLASTNGANFGQGTKLTVLG
# B3: 578min_max T84N_V89A (1009) (antibody, V domains shown)
# VH: B2 VH with T74N, L79A
# VL: B2 VL
# B4: 578min_max T84N (991) (antibody, V domains shown)
# VH: B2 VH with T74N, L79V
# VL: B2 VL
# B5: 578-max-min (902) (antibody, V domains shown)
# VH: B2 VH with T23A, G50S, T74N, G98K
# VL: B2 VL with A69T, E70Q
# B6: 578-max FW1.4_DHP (960) (antibody, V domains shown)
# VH: B2 VH with L11S, L79V, V93T, L115T
# VL: B2 VL with A69T, E70Q
# B7: 578min_max V89A (978) (antibody, V domains shown)
# VH: B2 VH with L79A
# VL: B2 VL
# B8: 511max_min (905) (antibody, V domains shown)
# VH: EVQLVESGGGLVQPGGSLRLSCAASGFSLNTYYMNWVRQAPGKGLEWVSIIAPDDTTYYASWAKSRFTISRDNSKNTLYLQMNSLRAEDTAVYYCAKSGDTTAWGADIWGQGTLVTVSS
# VL: EIVMTQSPSTLSASVGDRVIITCQASQSINIWLSWYQQKPGKAPKLLIYRASTLASGVPSRFSGSGSGTEFTLTISSLQPDDFATYYCQANYAYSAGYGAAFGQGTKLTVLG
# B9: 511min_max (904) (antibody, V domains shown)
# VH: B8 VH with A23T, A24V, S49G, F67S, N73T, L78V, K97R
# VL: B8 VL with L33C, T69A
# B10: 375-max (antibody, V domains shown)
# VH: EVQLVESGGGLVQPGGSLRLSCKASGFSFTTTDYMCWVRQAPGKGLEWVGCILAGDGSTYYANWAKGRFTGSKDTSKNTVYLQMNSLRAEDTAVYYCARSDPASSWSFALWGQGTLVTVSS
# VL: EIVMTQSPSTLSASVGDRVIITCQASENINIWLSWYQQKPGKAPKLLIYQASKLASGVPSRFSGSGSGTQFTLTISSLQPDDFATYYCQNNYSYNRYGAPFGQGTKLTVLG
# B11: 435-max (antibody, V domains shown)
# VH: EVQLVESGGGLVQPGGSLRLSCKVSGFSLNTNYWMCWVRQAPGKGLEWVGCMYTGSYNRAYYASWAKGRFTSSKDTSKNTVYLQMNSLRAEDTAVYYCAKGSNWYSDLWGQGTLVTVSS
# VL: EIVMTQSPSTLSASVGDRVIIKCQASQSIGSSLAWYQQKPGKAPKLLIYTAANLASGVPSRFSGSGSGAEFTLTISSLQPDDFATYYCQNFATSDTVTFGQGTKLTVLG
# B12: 578-min (antibody, V domains shown)
# VH: B2 VH with T23A, G50S, T74N, G98K
# VL: B2 VL
# B13: 578-max (antibody, V domains shown)
# VH: B2 VH with L79V
# VL: B2 VL with A69T, E70Q
# B14: 534-max (antibody, V domains shown)
# VH: EVQLVESGGGLVQPGGSLRLSCTASGFSLSYYYMSWVRQAPGKGLEWVGIIGPGDYTDYASWAKGRFTISKDTSKNTVYLQMNSLRAEDTAVYYCARGDDNSGWGEDIWGQGTLVTVSS
# VL: EIVMTQSPSTLSASVGDRVIITCQASQSINIWLSWYQQKPGKAPKLLIYKESTLASGVPSRFSGSGSGTEFTLTISSLQPDDFATYYCQNNYDSGNNGFPFGQGTKLTVLG
# B15: 509-min (antibody, V domains shown)
# VH: EVQLVESGGGLVQPGGSLRLSCAASGFSLSSYYMCWVRQAPGKGLEWVSCLDYVGDTDYASWAKGRFTISRDNSKNTLYLQMNSLRAEDTAVYYCAKTDDSRGWGLNIWGQGTLVTVSS
# VL: EIVMTQSPSTLSASVGDRVIITCQASQNIRIWLSWYQQKPGKAPKLLIYKASTLESGVPSRFSGSGSGAEFTLTISSLQPDDFATYYCQNNAHYSTNGGTFGQGTKLTVLG
# B16: 567-max (antibody, V domains shown)
# VH: EVQLVESGGGLVQPGGSLRLSCSVSGFSLSDYYMCWVRQAPGKGLEWVGCLDYFGSTDDASWAKGRFTISKDTSKNTVYLQMNSLRAEDTAVYYCARTDDSRGWGLNIWGQGTLVTVSS
# VL: B15 VL with S26D, N28S, R30Y, A69T, E70Q
# B17: 567-min (antibody, V domains shown)
# VH: B15 VH with S31D, V54F, D56S, Y59D
# VL: B15 VL with S26D, N28S, R30Y
# B18: 534-min C-His (antibody, V domains shown)
# VH: B14 VH with T23A, G49S, K71R, T73N, V78L, R97K
# VL: B14 VL with T69A
# Target: T1, human VEGF165
# Assay: SPR, pH 5
row,Kd [pM],Binder
1,200,B1
2,2130,B2
3,615,B3
4,971,B4
5,6550,B5
6,266,B6
7,1200,B7
8,1480,B8
9,278,B9

# Target: T1, human VEGF165
# Assay: SPR, pH 7.4
row,Kd [pM],Binder
1,4740,B10
2,92.2,B11
3,181,B12
4,23.7,B13
5,2470,B14
6,3060,B15
7,143,B16
8,631,B17

# Target: T2, human PlGF
# Assay: SPR, pH 5
row,binding result,Binder
1,no binding,B12
2,no binding,B13
3,no binding,B15
4,no binding,B16
5,no binding,B17

# Target: T1, human VEGF165
# Assay: SPR, pH 5
# Remark: another data set of the same source
row,Kd [pM],Binder
1,2680,B10
2,4530,B11
3,9010,B12
4,439,B13
5,34100,B18
6,9210,B14
7,1820,B15
8,188,B16
9,230,B17

# Target: T3, human VEGF110
# Assay: SPR, pH 5
row,Kd [pM],Binder
1,11400,B12
2,1380,B13
3,1650,B15
4,32.7,B16
5,25.1,B17

# Target: T4, mouse VEGF164
# Assay: SPR, pH 5
row,Kd [pM],Binder
1,10700,B12
2,429,B13
3,1630,B15
4,92.9,B16
5,170,B17

# Target: T5, human VEGF121
# Assay: SPR, pH 5
row,Kd [pM],Binder
1,9160,B12
2,950,B13
3,1280,B15
4,51.1,B16
5,24.1,B17

# Target: T6, rat VEGF164
# Assay: SPR, pH 5
row,Kd [pM],Binder
1,10700,B12
2,598,B13
3,2410,B15
4,149,B16
5,279,B17
